Results taken from paper PMC5059767 (2016).

Target: His-PKAC (human wild-type PKAC) (human, UniProt P17612 1-351)
Assay: ITC

Kd: 860 nM
Binder: EPTLPREFTRRGRRGAVSVDSLAEL [36i peptide (25 aa ARHGAP36 pseudosubstrate motif)]
